Source: paper PMC9482650, “Quantitative fragmentomics allow affinity mapping of interactomes” (Nature Communications, 2022)

T1: DFNB31_2, Q9P202
T1 sequence (Q9P202 274-371, limits assumed, looked up): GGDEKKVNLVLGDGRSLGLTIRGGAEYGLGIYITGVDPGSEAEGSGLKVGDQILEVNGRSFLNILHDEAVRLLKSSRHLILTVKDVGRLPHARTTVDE

T2: DFNB31_3, Q9P202
T2 sequence (Q9P202 811-907, limits assumed, looked up): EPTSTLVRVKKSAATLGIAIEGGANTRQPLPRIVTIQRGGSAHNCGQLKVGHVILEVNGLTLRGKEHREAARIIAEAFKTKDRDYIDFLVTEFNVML

T3: DLG3_3, Q92796
T3 sequence (Q92796 374-475, limits assumed, looked up): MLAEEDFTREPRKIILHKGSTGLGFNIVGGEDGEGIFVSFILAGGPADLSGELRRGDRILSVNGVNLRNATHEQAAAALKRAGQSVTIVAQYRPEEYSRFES

T4: DVL3, Q92997
T4 sequence (Q92997 244-331, limits assumed, looked up): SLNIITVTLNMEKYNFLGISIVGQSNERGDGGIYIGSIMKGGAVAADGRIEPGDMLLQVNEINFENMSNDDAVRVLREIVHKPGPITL

T5: GRIP1_5, Q9Y3R0
T5 sequence (Q9Y3R0 568-668, limits assumed, looked up): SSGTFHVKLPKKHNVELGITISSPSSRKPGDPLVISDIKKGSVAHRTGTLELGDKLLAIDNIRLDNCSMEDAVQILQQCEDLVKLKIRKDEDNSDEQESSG

T6: GRIP1_7, Q9Y3R0
T6 sequence (Q9Y3R0 999-1096, limits assumed, looked up): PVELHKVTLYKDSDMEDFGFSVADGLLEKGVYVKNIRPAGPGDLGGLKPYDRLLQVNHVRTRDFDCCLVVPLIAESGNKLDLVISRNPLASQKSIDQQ

T7: LIN7C, Q9NUP9
T7 sequence (Q9NUP9 88-185, limits assumed, looked up): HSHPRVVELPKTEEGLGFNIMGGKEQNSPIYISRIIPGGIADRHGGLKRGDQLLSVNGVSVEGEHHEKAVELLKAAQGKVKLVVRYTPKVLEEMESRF

T8: LNX2_2, Q8N448
T8 sequence (Q8N448 334-432, limits assumed, looked up): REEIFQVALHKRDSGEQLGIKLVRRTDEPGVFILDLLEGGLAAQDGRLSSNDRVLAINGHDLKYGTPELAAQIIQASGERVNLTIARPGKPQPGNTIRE

T9: LNX2_3, Q8N448
T9 sequence (Q8N448 463-564, limits assumed, looked up): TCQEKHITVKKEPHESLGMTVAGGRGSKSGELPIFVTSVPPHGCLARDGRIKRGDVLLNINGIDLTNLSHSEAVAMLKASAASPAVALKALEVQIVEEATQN

T10: MPP2, Q14168
T10 sequence (Q14168 180-250, limits assumed, looked up): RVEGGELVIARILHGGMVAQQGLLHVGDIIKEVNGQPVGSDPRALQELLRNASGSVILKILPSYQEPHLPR

T11: NHERF3_1, Q5T2W1
T11 sequence (Q5T2W1 4-100, limits assumed, looked up): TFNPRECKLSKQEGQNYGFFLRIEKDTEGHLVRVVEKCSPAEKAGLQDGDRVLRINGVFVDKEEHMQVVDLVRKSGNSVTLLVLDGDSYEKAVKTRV

T12: PTPN13_1, Q12923
T12 sequence (Q12923 1088-1188, limits assumed, looked up): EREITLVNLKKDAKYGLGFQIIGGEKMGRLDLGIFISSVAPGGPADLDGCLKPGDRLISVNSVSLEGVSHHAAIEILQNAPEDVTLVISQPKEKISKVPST


Experiments:
Assay in all cases: holdup assay
Set-up in all cases: key: below the threshold = too weak to quantify, mostly under pKd 3.1 to 4
Conditions in all cases: plain residues with an end cap or a label only (N-terminal biotin on a linker: ado-ado)
DFNB31_2, Q9P202 = biological target: T1, DFNB31_2, Q9P202
DFNB31_3, Q9P202 = biological target: T2, DFNB31_3, Q9P202
DLG1_1, Q12959 = biological target: DLG1_1, Q12959
DLG3_3, Q92796 = biological target: T3, DLG3_3, Q92796
DVL3, Q92997 = biological target: T4, DVL3, Q92997
FRMPD3, Q5JV73 = biological target: FRMPD3, Q5JV73
Sequence of FRMPD3, Q5JV73 (Q5JV73 12-100): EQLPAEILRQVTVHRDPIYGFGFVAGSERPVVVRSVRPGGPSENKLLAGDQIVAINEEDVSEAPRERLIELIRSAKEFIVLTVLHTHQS

GRIP1_5, Q9Y3R0 = biological target: T5, GRIP1_5, Q9Y3R0
GRIP1_7, Q9Y3R0 = biological target: T6, GRIP1_7, Q9Y3R0
GRIP2_6, Q9C0E4 = biological target: GRIP2_6, Q9C0E4
Sequence of GRIP2_6, Q9C0E4 (Q9C0E4 648-740): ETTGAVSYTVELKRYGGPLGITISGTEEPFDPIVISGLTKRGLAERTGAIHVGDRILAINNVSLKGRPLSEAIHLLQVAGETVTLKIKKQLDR

IL16_3, Q14005 = biological target: IL16_3, Q14005
Sequence of IL16_3, Q14005 (Q14005 1107-1207): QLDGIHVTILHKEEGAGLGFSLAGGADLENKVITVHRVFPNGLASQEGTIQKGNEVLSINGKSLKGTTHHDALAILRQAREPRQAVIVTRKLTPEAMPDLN

Inadl_4, Q8NI35 = biological target: Inadl_4, Q8NI35
Sequence of Inadl_4, Q8NI35 (Q8NI35 547-651): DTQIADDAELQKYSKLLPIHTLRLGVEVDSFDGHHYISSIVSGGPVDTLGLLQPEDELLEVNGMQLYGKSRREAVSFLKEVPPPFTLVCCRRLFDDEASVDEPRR

LIMK2, P53671 = biological target: LIMK2, P53671
Sequence of LIMK2, P53671 (P53671 143-248): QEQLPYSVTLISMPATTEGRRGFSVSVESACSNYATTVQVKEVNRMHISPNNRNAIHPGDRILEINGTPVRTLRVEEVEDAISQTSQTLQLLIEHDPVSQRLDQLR

LIN7C, Q9NUP9 = biological target: T7, LIN7C, Q9NUP9
LNX1_1, Q8TBB1 = biological target: LNX1_1, Q8TBB1
Sequence of LNX1_1, Q8TBB1 (Q8TBB1 261-371): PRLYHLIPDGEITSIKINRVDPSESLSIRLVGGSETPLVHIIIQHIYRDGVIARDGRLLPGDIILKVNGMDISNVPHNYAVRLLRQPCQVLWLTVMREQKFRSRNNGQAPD

LNX2_2, Q8N448 = biological target: T8, LNX2_2, Q8N448
LNX2_3, Q8N448 = biological target: T9, LNX2_3, Q8N448
MAGI1_2, Q96QZ7 = biological target: MAGI1_2, Q96QZ7
Sequence of MAGI1_2, Q96QZ7 (Q96QZ7 456-580): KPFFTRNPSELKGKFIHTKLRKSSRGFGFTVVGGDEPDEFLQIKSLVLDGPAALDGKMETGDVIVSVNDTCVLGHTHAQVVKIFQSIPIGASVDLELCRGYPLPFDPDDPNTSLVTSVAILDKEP

MAGI2_3, Q86UL8 = biological target: MAGI2_3, Q86UL8
Sequence of MAGI2_3, Q86UL8 (Q86UL8 600-682): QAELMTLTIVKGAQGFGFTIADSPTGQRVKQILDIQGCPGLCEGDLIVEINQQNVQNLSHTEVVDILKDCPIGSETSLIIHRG

MPP2, Q14168 = biological target: T10, MPP2, Q14168
NHERF3_1, Q5T2W1 = biological target: T11, NHERF3_1, Q5T2W1
NHERF4_1, Q86UT5-2 = biological target: NHERF4_1, Q86UT5-2
Sequence of NHERF4_1, Q86UT5-2 (Q86UT5 other isoform, or with tags, fused parts or gaps): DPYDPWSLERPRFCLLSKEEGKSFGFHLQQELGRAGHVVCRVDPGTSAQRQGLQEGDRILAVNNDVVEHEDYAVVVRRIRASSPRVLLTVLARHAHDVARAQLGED

PTPN13_1, Q12923 = biological target: T12, PTPN13_1, Q12923
PTPN3, P26045 = biological target: PTPN3, P26045
Sequence of PTPN3, P26045 (P26045 505-587): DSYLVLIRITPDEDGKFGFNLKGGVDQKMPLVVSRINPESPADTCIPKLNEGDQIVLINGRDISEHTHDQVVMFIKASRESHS

SCRIB_2, Q14160 = biological target: SCRIB_2, Q14160
Sequence of SCRIB_2, Q14160 (Q14160 857-960): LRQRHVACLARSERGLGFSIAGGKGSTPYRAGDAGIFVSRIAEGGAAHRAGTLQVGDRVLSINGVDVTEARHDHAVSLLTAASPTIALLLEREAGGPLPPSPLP

SCRIB_3, Q14160 = biological target: SCRIB_3, Q14160
Sequence of SCRIB_3, Q14160 (Q14160 999-1103): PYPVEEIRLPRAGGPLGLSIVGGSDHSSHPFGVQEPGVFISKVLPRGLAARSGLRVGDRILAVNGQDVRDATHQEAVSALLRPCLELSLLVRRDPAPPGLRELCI

TJP2_1, Q9UDY2 = biological target: TJP2_1, Q9UDY2
Sequence of TJP2_1, Q9UDY2 (Q9UDY2 24-128): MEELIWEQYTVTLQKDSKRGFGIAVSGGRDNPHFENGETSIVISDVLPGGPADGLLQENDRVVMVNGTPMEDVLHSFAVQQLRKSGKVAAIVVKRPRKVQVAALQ

Binder | pKd (DFNB31_2, Q9P202) | pKd (DFNB31_3, Q9P202) | pKd (DLG1_1, Q12959) | pKd (DLG3_3, Q92796) | pKd (DVL3, Q92997) | pKd (FRMPD3, Q5JV73) | pKd (GRIP1_5, Q9Y3R0) | pKd (GRIP1_7, Q9Y3R0) | pKd (GRIP2_6, Q9C0E4) | pKd (IL16_3, Q14005) | pKd (Inadl_4, Q8NI35) | pKd (LIMK2, P53671) | pKd (LIN7C, Q9NUP9) | pKd (LNX1_1, Q8TBB1) | pKd (LNX2_2, Q8N448) | pKd (LNX2_3, Q8N448) | pKd (MAGI1_2, Q96QZ7) | pKd (MAGI2_3, Q86UL8) | pKd (MPP2, Q14168) | pKd (NHERF3_1, Q5T2W1) | other results
QKAPTKEFYA [SDC2, P34741] | below the threshold | 3.91 | below the threshold | below the threshold | below the threshold | 3.89 | below the threshold | below the threshold | 4.1 | below the threshold | below the threshold | below the threshold | below the threshold | below the threshold | below the threshold | below the threshold | below the threshold | below the threshold | below the threshold | 3.86 | pKd (NHERF4_1, Q86UT5-2): 3.57; pKd (PTPN13_1, Q12923): below the threshold; pKd (PTPN3, P26045): 4.2; pKd (SCRIB_2, Q14160): below the threshold; pKd (SCRIB_3, Q14160): below the threshold; pKd (TJP2_1, Q9UDY2): below the threshold
EKCGKEFSEF [PRKACA, P17612] | below the threshold | below the threshold | below the threshold | below the threshold | below the threshold | below the threshold | below the threshold | below the threshold | below the threshold | below the threshold | below the threshold | below the threshold | below the threshold | below the threshold | 3.49 | below the threshold | below the threshold | below the threshold | below the threshold | below the threshold | pKd (NHERF4_1, Q86UT5-2): 3.56; pKd (PTPN13_1, Q12923): below the threshold; pKd (PTPN3, P26045): 3.98; pKd (SCRIB_2, Q14160): below the threshold; pKd (SCRIB_3, Q14160): below the threshold; pKd (TJP2_1, Q9UDY2): below the threshold
QLSFNTDTLC [ABCA2, Q9BZC7] | below the threshold | below the threshold | 3.87 | below the threshold | below the threshold | below the threshold | below the threshold | below the threshold | below the threshold | below the threshold | below the threshold | below the threshold | below the threshold | below the threshold | 3.78 | below the threshold | below the threshold | below the threshold | below the threshold | 4.07 | pKd (NHERF4_1, Q86UT5-2): 4.18; pKd (PTPN13_1, Q12923): below the threshold; pKd (PTPN3, P26045): 4.09; pKd (SCRIB_2, Q14160): below the threshold; pKd (SCRIB_3, Q14160): below the threshold; pKd (TJP2_1, Q9UDY2): below the threshold
EDLEDEWEVI [TECPR2, O15040] | below the threshold | 3.76 | below the threshold | below the threshold | below the threshold | below the threshold | below the threshold | below the threshold | below the threshold | below the threshold | below the threshold | below the threshold | below the threshold | below the threshold | 4.18 | below the threshold | below the threshold | below the threshold | below the threshold | below the threshold | pKd (NHERF4_1, Q86UT5-2): below the threshold; pKd (PTPN13_1, Q12923): below the threshold; pKd (PTPN3, P26045): below the threshold; pKd (SCRIB_2, Q14160): below the threshold; pKd (SCRIB_3, Q14160): 3.84; pKd (TJP2_1, Q9UDY2): below the threshold
